According to US20250188133A1, “CHIMERIC BACTERIOCINS AND METHOD FOR THE CONTROL OF PSEUDOMONAS” (priority 2022, published 2025):

Columns and labels:
Experiment in all cases: agar disc-diffusion assay
Type in all cases: cell-based
P. aeruginosa NCTC 13921 = details: strain NCTC 13921; 0.3, 3 and 30 μg of protein spotted on discs on CAA agar lawn, overnight
Method in brief: (§1)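 Overnight cultures in CAA medium were adjusted to OD595=1.0, diluted 100× and swabbed onto CAA agar (1.5%). Chimeric pyocins (0.3-30 μg) were spotted on 6 mm paper discs; plates were incubated overnight at 37° C and inhibition zones observed.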

P. aeruginosa HP75 = details: strain HP75; 0.3, 3 and 30 μg of protein spotted on discs on CAA agar lawn, overnight
Method in brief: as §1

[1] = tested on: P. aeruginosa Boston 41501 (ATCC 27853); details: strain Boston; 0.3, 3 and 30 μg of protein spotted on discs on CAA agar lawn, overnight
Method in brief: as §1

P. aeruginosa BR79 = details: strain BR79; 0.3, 3 and 30 μg of protein spotted on discs on CAA agar lawn, overnight
Method in brief: as §1

P. aeruginosa HP6 = details: strain HP6; 0.3, 3 and 30 μg of protein spotted on discs on CAA agar lawn, overnight
Method in brief: as §1

P. aeruginosa UR78 = details: strain UR78; 0.3, 3 and 30 μg of protein spotted on discs on CAA agar lawn, overnight
Method in brief: as §1

P. aeruginosa A19 = details: strain A19; 0.3, 3 and 30 μg of protein spotted on discs on CAA agar lawn, overnight
Method in brief: as §1

P. aeruginosa BI80 = details: strain BI80; 0.3, 3 and 30 μg of protein spotted on discs on CAA agar lawn, overnight
Method in brief: as §1

P. aeruginosa EY76 = details: strain EY76; 0.3, 3 and 30 μg of protein spotted on discs on CAA agar lawn, overnight
Method in brief: as §1

P. aeruginosa HP52 = details: strain HP52; 0.3, 3 and 30 μg of protein spotted on discs on CAA agar lawn, overnight
Method in brief: as §1

P. aeruginosa PA14 = details: strain PA14; 0.3, 3 and 30 μg of protein spotted on discs on CAA agar lawn, overnight
Method in brief: as §1

P. aeruginosa Pr335 = details: strain Pr335; 0.3, 3 and 30 μg of protein spotted on discs on CAA agar lawn, overnight
Method in brief: as §1

P. aeruginosa HP41 = details: strain HP41; 0.3, 3 and 30 μg of protein spotted on discs on CAA agar lawn, overnight
Method in brief: as §1

P. aeruginosa ATCC 29260 = details: strain ATCC 29260; 0.3, 3 and 30 μg of protein spotted on discs on CAA agar lawn, overnight
Method in brief: as §1

B1: S5-PmnH (protein)
chain: MSNDNEVPGSMVIVAQGPDDQYAYEVPPIDSAAVAGNMFGDLIQREIYLQKNIYYPVRSIFEQGTKEKKEINKKVSDQVDGLLKQITQGKREATRQERVDVMSAVLHKMESDLEGYKKTFTKGPFIDYEKQSSLSIYEAWVKIWEKNSWEERKKYPFQQLVRDELERAVAYYKQDSLSEAVKVLRQELNKQKALKEKEDLSQLERDYRTRKANLEMKVQSELDQAGSALPPLVSPTPEQWLERATRLVTQAIADKKQLQTTNNTLIKNSPTPLEKQKAIYNGELLVDEIASLQARLVKLNAETTRRRTEKELTPDEKAAYTDAVSFVSTANEQMLQKYGANLSKVAQDMQAEIAGKKVRSYAEAMATFEKISANPAMKLNALDTQAVVDALNALDKASFADNITRLGKAFGVVGKVVQAEAIREKTVSGFQTGDWKPLMLELEAMAVGTGAGILLATSMAFFFPVFASAAAGVVVVALMMAATAAYFDAAKVDEINNLILN
modifications: Chimeric S5-PmnH
Activity in agar disc-diffusion assay (P. aeruginosa NCTC 13921): *** (activity detected with 0.3 μg of protein)
Activity in agar disc-diffusion assay (P. aeruginosa HP75): ** (activity detected with 3 μg of protein)
Activity in agar disc-diffusion assay [1]: *** (activity detected with 0.3 μg of protein)
Activity in agar disc-diffusion assay (P. aeruginosa BR79): ** (activity detected with 3 μg of protein)
Activity in agar disc-diffusion assay (P. aeruginosa HP6): *** (activity detected with 0.3 μg of protein)
Activity in agar disc-diffusion assay (P. aeruginosa UR78): *** (activity detected with 0.3 μg of protein)
Activity in agar disc-diffusion assay (P. aeruginosa A19): *** (activity detected with 0.3 μg of protein)
Activity in agar disc-diffusion assay (P. aeruginosa BI80): *** (activity detected with 0.3 μg of protein)
Activity in agar disc-diffusion assay (P. aeruginosa EY76): *** (activity detected with 0.3 μg of protein)
Activity in agar disc-diffusion assay (P. aeruginosa HP52): ** (activity detected with 3 μg of protein)
Activity in agar disc-diffusion assay (P. aeruginosa PA14): *** (activity detected with 0.3 μg of protein)
Activity in agar disc-diffusion assay (P. aeruginosa Pr335): *** (activity detected with 0.3 μg of protein)
Activity in agar disc-diffusion assay (P. aeruginosa HP41): *** (activity detected with 0.3 μg of protein)
Activity in agar disc-diffusion assay (P. aeruginosa ATCC 29260): *** (activity detected with 0.3 μg of protein)
